# From paper PMC11677724, “Preclinical Study of a Dual-Target Molecular Probe Labeled with ^68Ga Targeting SSTR2 and FAP” (Pharmaceuticals, 2024)
# Assays:
# [1] = In vitro stability in physiological saline/PBS or FBS, radio-HPLC; format: in vitro ADME; details: 1.85 MBq in 5 µL, 37 °C, 2 h
# Protocol: A measure of 5 µL of [^68Ga]Ga-TATE-46 (1.85 MBq) was added to 300 µL of PBS or FBS and incubated at 37 °C for 2 h. Subsequently, the radiochemical purity was determined using HPLC.
# [2] = Pharmacokinetics, blood time-activity curves, two-compartment model; format: in vivo, BALB/c mice; details: female healthy BALB/c mice, n = 3 per group, 0.37 MBq tail vein, blood 2-120 min, γ-counter, two-compartment model (WinNonlin)
# Protocol: Nine female healthy BALB/c mice were randomly divided into three groups (with three mice in each group) using a random number table. Each group was administered 100 µL of [^68Ga]Ga-TATE-46, [^68Ga]Ga-DOTA-TATE, or [^68Ga]Ga-FAPI-46 (0.37 MBq) via tail vein injection. Blood samples (5 µL × 3) were collected at 2, 5, 10, 15, 30, 60, 90, and 120 min post-injection via tail vein. The radioactivity in the blood was measured with a γ-counter and converted to blood radioactivity concentration (kBq/mL). The pharmacokinetic data (time–blood radioactivity concentration) were analyzed by using the two-compartment model in the pharmacokinetic software WinNonlin (Certara, Louis, MO, USA, 2018-06) to determine the distribution and clearance half-life parameters of the radiopharmaceuticals in the mice.
# [3] = tested on: NCI-H727 cells (SSTR2/FAP, positive); test: Cell uptake and blocking in NCI-H727 cells; format: cell-based; details: 1 h
# Protocol: The NCI-H727 and Mc38 cell lines were supplied by the Stem Cell Bank of the Chinese Academy of Sciences and were cultivated in Roswell Park Memorial Institute (RPMI-1640) medium with 10% (v/v) fetal bovine serum (FBS) at 37 °C with 5% CO2. All cells were cultured until they reached 80–90% confluence before undergoing trypsinization.
# NCI-H727 cells were placed in a 24-well plate and cultivated for 24 h. The original medium was removed, and fresh RPMI-1640 was added. Then, 100 µL of [^68Ga]Ga-TATE-46, [^68Ga]Ga-DOTA-TATE, or [^68Ga]Ga-FAPI-46 (1.48×10^4 Bq) was added to each well, and the cells were incubated for 30 min, 1 h, 2 h, and 4 h (with three replicates for each time point). The culture medium was taken away, and the cells were washed twice with cold PBS (pH 7.4). Then, the cells were lysed using 0.5 mL of 1 M NaOH.
# In blocking experiments, an excessive amount of unlabeled FAPI-46, DOTA-TATE, or FAPI-46 + DOTA-TATE (10 µg/well) was added as an inhibitor along with [^68Ga]Ga-TATE-46 to the cells. After 1 h, the cells were processed using the same method. Finally, the cell lysates were gathered, and the radioactivity was measured using a γ-counter. Mc38 cells were used as a negative control, with only [^68Ga]Ga-TATE-46 (1.48 × 10^4 Bq/well, 100 µL) added, and the rest of the procedure was followed as described above.
structure (smiles),measurement,setting,value
"C[C@@H](O)[C@H](NC(=O)[C@@H]1CSSC[C@H](NC(=O)[C@@H](Cc2ccccc2)NC(=O)CCCCCNC(=O)CCCCCNC(=O)[C@H](Cc2ccccc2)NC(=O)C(CCC(=O)N[C@@H](Cc2ccccc2)C(=O)NCCCCCC(=O)NCCCCCC(=O)N2CCN(CCCN(C)c3ccc4nccc(C(=O)NCC(=O)N5CC(F)(F)C[C@H]5C#N)c4c3)CC2)NC(=O)CN2CCN(CC(=O)O)CCN(CC(=O)O)CCN(CC(=O)O)CC2)C(=O)N[C@@H](Cc2ccc(O)cc2)C(=O)N[C@H](Cc2c[nH]c3ccccc23)C(=O)N[C@@H](CCCCN)C(=O)N[C@@H]([C@@H](C)O)C(=O)N1)C(=O)O (stereo partly drawn) [[^68Ga]Ga-TATE-46, metal not drawn]",In vitro stability in FBS (HPLC chromatogram),[1]; 300 µL FBS,only one peak
same,In vitro stability in physiological saline (HPLC chromatogram),[1]; physiological saline (method: 300 µL PBS),only one peak
same,distribution half-life,[2],1.79 min
same,elimination half-life,[2],37.75 min
same,cellular uptake in NCI-H727 cells compared with [68Ga]Ga-DOTA-TATE and [68Ga]Ga-FAPI-46,"[3]; 1.48×10^4 Bq/well, 30 min, 2 h, 4 h, γ-counter, n = 3, all p < 0.001",significantly higher
same,"cellular uptake in NCI-H727 cells on co-incubation with unlabeled TATE, FAPI-46, or TATE + FAPI-46","[3]; blocker at 1000 times the molar amount (10 µg/well), all p < 0.01",significant reduction
